Assay results: patent publication US20210371503A1

B1: MnC4t1p1_A10 (antibody, V domains shown)
VH: QLQVQESGPGLVKPSETLSLTCTVSGASISSNHYFWGWIRQPPGKGLAWIGSMHYSGSTYYNPSLKSRVTISVDTSKNQLSLKLSSVTAADTAVYYCARGVNYYDRNGYYRNDGFDIRGQGTMVTVSS
VL: DIQMTQSPSSLSASVGDRVTITCRASQGIRNDLGWYEQKPGKAPKRLIYAASSLESGVPSRFSGSGSGTEFTLTISSLQPEDFATYYCLQHNTYPFTFGPGTRVDIK
B2: MnC4t2p1_F5 (antibody, V domains shown)
VH: B1 VH
VL: B1 VL
B3: MnC4t2p1_D10 (antibody, V domains shown)
VH: B1 VH
VL: B1 VL

target: SARS-CoV-2 (spike protein) antigen of the Euroimmun IgG detection kit; experiment: Euroimmun IgG ELISA kit, antibody at 50 µg/ml [cont'd]

| Binder | IgG detection test |
| --- | --- |
| B1 | 4.87 |
| B2 | 5.19 |
| B3 | 5.3 |
